Data taken from US20250270304A1 (PHENOMIC AI, published 2025).

T1: Latent Activin A (human, UniProt P08476 21-426, limits assumed)
T1 construct: also called INHBA latent
T1 sequence: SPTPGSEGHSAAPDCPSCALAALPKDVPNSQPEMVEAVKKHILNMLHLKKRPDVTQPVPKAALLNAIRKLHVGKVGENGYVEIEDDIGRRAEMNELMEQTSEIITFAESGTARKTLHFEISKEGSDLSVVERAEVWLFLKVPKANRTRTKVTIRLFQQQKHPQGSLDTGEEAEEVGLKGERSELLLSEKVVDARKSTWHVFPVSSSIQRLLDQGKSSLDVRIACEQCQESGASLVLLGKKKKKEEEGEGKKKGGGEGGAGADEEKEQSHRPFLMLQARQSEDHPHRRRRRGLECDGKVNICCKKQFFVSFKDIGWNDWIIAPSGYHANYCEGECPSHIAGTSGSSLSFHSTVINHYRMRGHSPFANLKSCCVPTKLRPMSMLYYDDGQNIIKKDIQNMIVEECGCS

T2: Mature Activin A (human, UniProt P08476 311-426)
T2 construct: also called active Activin A; INHBA mature
T2 sequence: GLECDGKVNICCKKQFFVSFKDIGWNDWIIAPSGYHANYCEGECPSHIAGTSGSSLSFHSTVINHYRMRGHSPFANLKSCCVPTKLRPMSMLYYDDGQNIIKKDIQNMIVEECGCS

T3: Activin B (Homo sapiens (Human), UniProt P09529 293-407)
T3 construct: also called Mature Activin B; mature Activin B
T3 sequence: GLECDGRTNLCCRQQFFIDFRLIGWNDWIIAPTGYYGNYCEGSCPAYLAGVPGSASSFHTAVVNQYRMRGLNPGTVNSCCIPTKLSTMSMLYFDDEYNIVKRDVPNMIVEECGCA

T4: Inhibin A (Homo sapiens (Human), UniProt P05111 233-366; P08476 311-426)
T4 sequence 1: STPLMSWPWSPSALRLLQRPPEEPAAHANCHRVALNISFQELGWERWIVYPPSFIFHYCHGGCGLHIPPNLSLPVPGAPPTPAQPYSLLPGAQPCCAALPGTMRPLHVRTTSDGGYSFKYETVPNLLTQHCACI
T4 sequence 2: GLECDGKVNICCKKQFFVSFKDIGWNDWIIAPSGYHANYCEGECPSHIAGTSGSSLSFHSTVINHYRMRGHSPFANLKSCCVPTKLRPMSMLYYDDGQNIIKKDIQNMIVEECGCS


How the values were obtained:
Test in all cases: ELISA, coated antigen, OD450
Latent Activin A = target: T1, Latent Activin A
Protocol: (§1) Antibodies were re-expressed in 40 mL cultures of Expi293 cells and purified using protein G magnetic sepharose beads (Cytiva, Marlborough, MA) to provide larger quantities for secondary screening. Secondary screening included dose responses in both functional assays described above (SMAD nuclear localization and fibroblast activations assays) as well as in binding assays to the same antigens listed in Table 3. Plates were coated with 25 μL of 3 μg/mL antigen in 384-well Maxisorp plates overnight at 4° C. with agitation. The next day, the samples in the plates were blocked with 70 μL blocking buffer (PBS+1% BSA+0.1% Tween-20) for 2 hours at room temperature. Plates were then washed three times with 100 μL of wash buffer (PBS+0.1% Tween-20). Primary antibodies in Expi293 expression medium were diluted 1:3 in blocking buffer, 25 μL added per well, and the plates were incubated for an hour at room temperature with agitation. Plates were then washed three times and 25 μL of secondary antibody (goat anti-Human IgG, HRP conjugated; Jackson Immunoresearch) diluted 1:5000 in blocking buffer was added for 30 minutes at room temperature. The wells in the plates were washed six times with wash buffer and TMB substrate was added followed by 1 M H3PO4.

Mature Activin A = target: T2, Mature Activin A
Protocol: as §1

Activin B = target: T3, Activin B
Protocol: as §1

Inhibin A = target: T4, Inhibin A
Protocol: as §1

fold-change of OD 450 over negative control (BSA) (Latent Activin A) [fold]	fold-change of OD 450 over negative control (BSA) (Mature Activin A) [fold]	fold-change of OD 450 over negative control (BSA) (Activin B) [fold]	fold-change of OD 450 over negative control (BSA) (Inhibin A) [fold]	Binder
4.95	6.63	0.76	0.65	AB449 (antibody, IgG1, V domains shown) VH: QVQLQESGPGLVKPSQTLSLTCTVSGLSLSNAKMGVNWIRQPPGKGLEWIGYVSTTGTTDYNPSLKSRVTMSVDTSKNQFSLKVNSVTAADTAVYYCARAGYPDVWGKGTTVTVSS VL: DIQMTQSPSSVSASVGDRVTITCRASQGISRDLAWYQQKPGKAPKLLIYAASTLVSGVPSRFSGSGSGTDFTLTISSLQPEDFANYYCQQYVSAPPYTFGGGTKVEIK
5.82	6.84	0.87	0.46	AB465 (antibody, IgG1, V domains shown) VH: QVQLQESGPGLVKPSQTLSLTCTVSGASVSNARTGVNWIRQPPGKGLEWIGYINPSGRIDYNPSLKSRVTMSVDTSKNQFSLKVNSVTAADTAVYYCARAGYPDVWGKGTTVTVSS VL: EIVMTQSPATLSLSPGERATLSCRASQTVSSHLAWYQQKPGQAPRLLIYDVSHRASGIPARFSGSGSGTDFTLTISSLEPEDFAVYYCQQYFTLPTFGGGTKVEIK
6.66	8.09	0.84	0.74	AB435 (antibody, IgG1, V domains shown) VH: QVQLQESGPGLVKPSQTLSLTCTVSGYSLTDARIGVNWIRQPPGKGLEWIGYINPSGRTDYNPSLKSRVTMSVDTSKNQFSLKVNSVTAADTAVYYCARAGYPDVWGKGTTVTVSS VL: EIVMTQSPATLSLSPGERATLSCRASQSIGTKLAWYQQKPGQAPRLLIYDASSRVPGIPARFSGSGSGTDFTLTISSLEPEDFAVYYCQQYGSSPPVYSFGGGTKVEIK

Second part, the binder before the results:

Binder	fold-change of OD 450 over negative control (BSA) (Latent Activin A) [fold]	fold-change of OD 450 over negative control (BSA) (Mature Activin A) [fold]	fold-change of OD 450 over negative control (BSA) (Activin B) [fold]	fold-change of OD 450 over negative control (BSA) (Inhibin A) [fold]
AB372 (antibody, IgG1, V domains shown) VH: QVTLRESGPALVKPTQTLTLTCTVSGFSLSTSGATVNWIRQPPGKALEWIGYITSSGRTVYNSALKSRLTISKDTSKNQVVLTMTNMDPVDTATYYCTTTKIVGATLRDYWGQGTLVTVSS VL: DIVMTQSPDSLAVSLGERATINCKSSQSVLDTSTNRNYLAWYQQKPGQPPKLLIYGASIRAGGVPDRFSGSGSGTDFTLTISSLQAEDVAVYYCQQSYSHPPTFGGGTKVEIK	5.64	7.16	0.43	0.43
AB363 (antibody, IgG1, V domains shown) VH: QVTLRESGPALVKPTQTLTLTCTVSGFSLSTSGATVNWIRQPPGKALEWIGYITSSGRTVYNSALKSRLTISKDTSKNQVVLTMTNMDPVDTATYYCTTTKIVGATLRDYWGQGTLVTVSS VL: DIQMTQSPSSVSASVGDRVTITCRASQGISNDLAWYQQKPGKAPKLLIYDVSNRASGVPSRFSGSGSGTDFTLTISSLQPEDFANYYCQQYDNPPSFGGGTKVEIK	4.82	7.63	0.63	0.53
AB338 (antibody, IgG1, V domains shown) VH: EVQLVESGGGLVQPGGSLRLSCAASGFTASRNYMSWVRQAPGKGLELVASISGSGDYTYYPDSVKGRFTISRDNAKNSLYLQMNSLRAEDTAVYYCARSPRGPRLLGYYYGMDVWGQGTTVTVSS VL: DIVMTQSPLSLPVTPGEPASISCRSSQSLLHSNEKNYLHWYLQKPGQSPQLLIYDASKRASGVPDRFSGSGSGTDFTLKISRVEAEDVGVYYCVQDLHTPFTFGGGTKVEIK	1.44	1.94	0.68	0.9
